According to paper PMC6895045, “Upregulation of tropomyosin alpha-4 chain in patients’ saliva with oral squamous cell carcinoma as demonstrated by Phage display” (Scientific Reports, 2019):

Target: T1, tropomyosin alpha-4 chain (Homo sapiens, UniProt P67936)
T1 construct: Tropomyosin alpha-4 chain, human, UniProtKB P67936; theoretical mass/pI printed as 28,522 kDa/4.67); Denatured protein on a nitrocellulose membrane; identity rests on MALDI-TOF MS of the excised spot; also called TPM4; TMP4; source: endogenous, pooled protein extracts from OSCC tissues, resolved by 2D gel electrophoresis
Experiment: far-Western, overlay or dot blot; Western blot of a 2D gel (pH 4-7) of OSCC tissue protein extracts on nitrocellulose, probed with scFv-D09, detected with HRP-conjugated rat anti-HA; the spot was excised from the stained gel and identified by MALDI-TOF MS
Conditions: one partner purified

T1 sequence (P67936 whole entry): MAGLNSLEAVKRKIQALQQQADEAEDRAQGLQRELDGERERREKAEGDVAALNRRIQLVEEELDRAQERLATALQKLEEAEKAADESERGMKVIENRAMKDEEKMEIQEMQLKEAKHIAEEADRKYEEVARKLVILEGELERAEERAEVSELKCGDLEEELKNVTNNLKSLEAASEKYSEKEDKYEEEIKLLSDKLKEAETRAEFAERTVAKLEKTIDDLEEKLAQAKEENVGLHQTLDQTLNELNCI

B1: scFv-D09 (scFv, V domains shown)
VH: QVQLQESGPGLVKPSQTLSLTCAVSGGSISSSNWWSWVRQPPGKGLEWIGEIYHSGSTNYNPSLKSRVTISVDKSKNQFSLKLSSVTAADTAVYYCARQSFPGRAFDIWGQGTMVTVSS
VL: EIVMTQSPATLSVSPGERATLSCRASQSVSSNLAWYQQKPGQAPRLLIYGASTRATGIPARFSGSGSGTEFTLTISSLQSEDFAVYYCQHYNNWLWTFGQGTKVEIK
notes: also called scFv D09 antibody; scFv-D09 clone
Does B1 bind?
Result: binds
